Measured values published in doi:10.1101/2023.09.30.560296 (bioRxiv, 2023).
“And” between values parts separate entries of the source, which are not always exact repeats. Equal values may be shown once. Square brackets hold non-standard residues; d marks the D form. Ends that are not written are not given here. * marks the point of attachment. FITC = O=C1OC2(c3ccc(O)cc3Oc3cc(O)ccc32)c2ccc(NC(=S)*)cc21; pS = N[C@@H](COP(=O)(O)O)C(=O)O; Ahx = NCCCCCC(=O)O

Tests used:
GST-fused LC3B [1] = target: T1, GST-fused LC3B (UniProt Q9GZQ8 1-120); test: Microfluidic Diffusional Sizing
GST-fused LC3B [2] = target: T1, GST-fused LC3B; test: SPR

Binder: {FITC-Ahx}-NSSGSSED[pS]FVEIRMAE [FITC-Ahx OPTN LIR peptide 169-185 (pS177)]
- Kd (GST-fused LC3B [1]): 14.3 µM and 13.7 µM

Binder: {FITC-Ahx}-NSSGSSEDSWVEIRMAE [FITC-Ahx OPTN LIR peptide 169-185 (F178W)]
- Kd (GST-fused LC3B [1]): 15.9 µM

Binder: {FITC-Ahx}-NSSGSSEDEFVEIRMAE [FITC-Ahx OPTN LIR peptide 169-185 (S177E)]
- Kd (GST-fused LC3B [1]): 42.8 µM

Binder: {FITC-Ahx}-NSSGSSED[pS]WVEIRMAE [FITC-Ahx OPTN LIR peptide 169-185 (pS177 F178W)]
- fold increase of binding affinity against pS177 (GST-fused LC3B [1]): 7 fold

Binder: {FITC-Ahx}-NSSGSSED[pS]AVEIRMAE [FITC-Ahx OPTN LIR peptide 169-185 (pS177 F178A)]
- Kd (GST-fused LC3B [2]): > 100 µM
- fold increase of Kd against pS177 (GST-fused LC3B [1]): 5 fold

Binder: {FITC-Ahx}-NSSGSSEDDFVEIRMAE [FITC-Ahx OPTN LIR peptide 169-185 (S177D)]
- Kd (GST-fused LC3B [2]): 36.7 µM
- Kd (GST-fused LC3B [1]): 44.8 µM

Binder: {FITC-Ahx}-NSSGSSED[pS]FVEIRAAE [FITC-Ahx OPTN LIR peptide 169-185 (pS177 M183A)]
- Kd (GST-fused LC3B [2]): 36.7 µM
